# Data from paper doi:10.1101/2023.11.20.567910.
# Tests used:
# [1] = molecular target: HIV-1AD8 Env variants (N332 substituted) tested against V3-glycan bnAbs
# [2] = molecular target: HIV-1AD8 Env variants (N332 substituted) tested against V3-glycan bnAbs; remark: listed apart in the source
substance,measurement,setting,value
10–1074 (antibody),IC50 of neutralisation: entry of Env-pseudotyped virus into Cf2-Th/CD4+CCR5+ cells (luciferase); told of most variants,[1],> 10 µg/mL
PGT121 (antibody),IC50 of neutralisation: entry of Env-pseudotyped virus into Cf2-Th/CD4+CCR5+ cells (luciferase),[2],< 1 µg/mL
2G12 (antibody),"IC50 of neutralisation: entry of Env-pseudotyped virus into Cf2-Th/CD4+CCR5+ cells (luciferase); told of most variants here, of all AD8 variants in p-0007",[1],> 10 µg/mL
